± gives the uncertainty stated by the source.
Test: self-splicing fitness, log relative to wild type (ln ratio); higher = more splicing; Tetrahymena group I intron in knt gene, E. coli kanamycin selection, DiMSum; sequences stand for … in CUCUCU…GGAGGGAAAAGUUAUCAGGCAUGCACCUGGUAGCUAGUCUUUAAACCAAUAGAUUGCAUCGGUUUAAAAGGCAAGACCGUCAAAUUGCGGGAAAGGGGUCAACAGCCGUUCAGUACCAAGUCUCAGGGGAAACUUUGAGAUGGCCUUGCAAAGGGUAUGGUAAUAAGCUGACGGACAUGGUCCUAACCACGCAGCCAAGUCCUAAGUCAACAGAUCUUCUGUUGAUAUGGAUGCAGUUCACAGACUAAAUGUCGGUCGGGGAAGAUGUAUUCUUCUCAUAAGAUAUAGUCGGACCUCUCCUUAAUGGGAGCUAGCGGAUGAAGUGAUGCAACACUGGAGCCGCUGGGAACUAAUUUGUAUGCGAAAGUAUAUUGAUUAGUUUUGGAGUACUCGUGGUCG
Procedure, shortened: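 DiMSum derived fitness as the error-weighted combination of fold changes across replicates, kanamycin versus no kanamycin, normalised to wild type. E. coli BL21(DE3) held the library, which randomised all eight P1ex-region intron nucleotides within the knt kanamycin-resistance gene on pET-22b(+). Six replicate transformations grew overnight at 37°C or 30°C on LB agar with or without 25 μg/mL kanamycin, also containing 100 μg/mL carbenicillin, 50 μM IPTG and 0.2% rhamnose, and pooled colonies were amplicon-sequenced on an Illumina HiSeq 2500.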

| Sequence | self-splicing fitness (ln) (30 °C) | self-splicing fitness (ln) (37 °C) |
| --- | --- | --- |
| CUACAGCAAUAUUACGCGUG | -1.83 ± 0.076 | -1.03 ± 0.089 |
| GGCCAGCAAUAUUACGACCG | -1.21 ± 0.11 | -0.323 ± 0.14 |
| ACAGAGCAAUAUUACGGCAG | -2.25 ± 0.14 | -2.45 ± 0.22 |
| GGGAAGCAAUAUUACGUCUA | 0.132 ± 0.17 | -0.25 ± 0.18 |
| CCAUAGCAAUAUUACGCAAU | -3.67 ± 0.15 | -2.64 ± 0.15 |
| GAGUAGCAAUAUUACGUCAC | -3.28 ± 0.24 |  |
| CUGUAGCAAUAUUACGCACA | -2.05 ± 0.13 | -1.19 ± 0.16 |
| CGGCAGCAAUAUUACGCCCU | -1.01 ± 0.39 | 0.318 ± 0.29 |
| UUCGAGCAAUAUUACGGUGU |  | -3.35 ± 0.42 |
| AUCCAGCAAUAUUACGGUAA | -1.02 ± 0.076 | -0.567 ± 0.073 |
| CCACAGCAAUAUUACGGACA | -3.12 ± 0.21 | -2.51 ± 0.18 |
| CACUAGCAAUAUUACGUCCG | -0.0671 ± 0.11 | 0.268 ± 0.13 |
| UGGCAGCAAUAUUACGAUGU | -4.09 ± 0.3 | -1.67 ± 0.34 |
| GCAUAGCAAUAUUACGCGCA | -1.09 ± 0.12 | -0.397 ± 0.14 |
| GUAGAGCAAUAUUACGACUC | 0.512 ± 0.23 | 0.484 ± 0.38 |
| GAAAAGCAAUAUUACGGGCC | -1.09 ± 0.14 | -1.37 ± 0.17 |
| UUAAAGCAAUAUUACGAUGA | 0.452 ± 0.081 | 0.681 ± 0.11 |
| AAGUAGCAAUAUUACGGUUC | -2.75 ± 0.19 | -2.08 ± 0.23 |
| CUAUAGCAAUAUUACGAACG | 0.0017 ± 0.29 | -0.388 ± 0.33 |
| ACACAGCAAUAUUACGUCAG | -3.58 ± 0.14 | -1.67 ± 0.12 |
| UCCGAGCAAUAUUACGAGUU | -2.64 ± 0.2 |  |
| CUCGAGCAAUAUUACGCGUC |  | -2.79 ± 0.32 |
| GCCUAGCAAUAUUACGUAGU | -0.126 ± 0.068 | 0.357 ± 0.088 |
| AGUAAGCAAUAUUACGGGAG | -3.4 ± 0.2 | -2.43 ± 0.2 |
| GCGUAGCAAUAUUACGAUUA | -0.494 ± 0.082 | 0.608 ± 0.085 |
| GUUUAGCAAUAUUACGAUGA | -2.41 ± 0.21 | -1.39 ± 0.14 |

| Sequence | self-splicing fitness (ln) (30 °C) | self-splicing fitness (ln) (37 °C) |
| --- | --- | --- |
| GUGGAGCAAUAUUACGAGCA | -2.49 ± 0.34 | -1.93 ± 0.39 |
| GGGUAGCAAUAUUACGACAG | -2.84 ± 0.2 | -1.9 ± 0.21 |
| AUUAAGCAAUAUUACGACCU | -0.144 ± 0.17 | 0.145 ± 0.18 |
| ACGGAGCAAUAUUACGUAGU | -2.37 ± 0.11 | -1.36 ± 0.12 |
| GCGCAGCAAUAUUACGUUCA | -0.782 ± 0.098 | 0.151 ± 0.1 |
| AACUAGCAAUAUUACGAUUU | -0.0161 ± 0.059 | -0.157 ± 0.075 |
| UGCAAGCAAUAUUACGAAUU | -2.91 ± 0.14 | -3.01 ± 0.23 |
| UAGGAGCAAUAUUACGCUCA | -1.55 ± 0.19 | -1.37 ± 0.16 |
| CAACAGCAAUAUUACGACGC | -0.56 ± 0.065 | -0.0606 ± 0.085 |
| CAGCAGCAAUAUUACGAUUC | -3.27 ± 0.25 | -1.78 ± 0.16 |
| UGCUAGCAAUAUUACGGCGU | -3.57 ± 0.22 | -1.89 ± 0.17 |
| GUAUAGCAAUAUUACGUAGU | -2.17 ± 0.096 | -1.26 ± 0.095 |
| CAUGAGCAAUAUUACGUCAC | -3.36 ± 0.36 |  |
| CCUUAGCAAUAUUACGGGUC | -4.43 ± 0.3 | -2.86 ± 0.38 |
| CAAGAGCAAUAUUACGGGUU | -3.54 ± 0.18 | -3.25 ± 0.23 |
| UCGGAGCAAUAUUACGUUCU | -3.17 ± 0.2 | -1.41 ± 0.4 |
| UUCAAGCAAUAUUACGUAUU | -3.82 ± 0.17 | -2.66 ± 0.16 |
| CGACAGCAAUAUUACGAUGU | -2.74 ± 0.15 | -2.59 ± 0.18 |
| UGUUAGCAAUAUUACGACGG | -0.352 ± 0.16 | -0.218 ± 0.18 |
| GUGGAGCAAUAUUACGCUAG | -3.24 ± 0.19 | -2.36 ± 0.2 |
| UUCUAGCAAUAUUACGUAAU | -3.08 ± 0.15 | -1.88 ± 0.17 |
| CAUGAGCAAUAUUACGAUUU | -2.51 ± 0.15 | -2.15 ± 0.2 |
| ACGCAGCAAUAUUACGUCGA | -2.34 ± 0.11 | -1.34 ± 0.092 |
| AAUCAGCAAUAUUACGGAUC | -0.358 ± 0.073 | 0.17 ± 0.1 |
| GAGUAGCAAUAUUACGUUGG | -3.06 ± 0.25 | -3.3 ± 0.46 |
| GGAUAGCAAUAUUACGCGUA | -0.646 ± 0.21 | -2.02 ± 0.18 |

| Sequence | self-splicing fitness (ln) (30 °C) | self-splicing fitness (ln) (37 °C) |
| --- | --- | --- |
| AGCAAGCAAUAUUACGACUA | -0.478 ± 0.11 | -0.326 ± 0.13 |
| GCCUAGCAAUAUUACGCGGA | -0.245 ± 0.08 | 0.226 ± 0.093 |
| GAGGAGCAAUAUUACGUUUG | -3.33 ± 0.16 | -1.92 ± 0.13 |
| CAGUAGCAAUAUUACGUCUC | -3.93 ± 0.37 | -2.13 ± 0.27 |
| AAUUAGCAAUAUUACGGGUA | -1.52 ± 0.11 | -0.428 ± 0.098 |
| UUAUAGCAAUAUUACGGUGG | -0.966 ± 0.11 | -0.924 ± 0.12 |
| CUAUAGCAAUAUUACGAAAA |  | -2.17 ± 0.29 |
| CCUGAGCAAUAUUACGAGGG | -3.48 ± 0.19 | -2.22 ± 0.23 |
| CGGUAGCAAUAUUACGUAAU | -3.97 ± 0.47 |  |
| CACAAGCAAUAUUACGAAAU | -2.91 ± 0.19 | -3.24 ± 0.24 |
| UUUAAGCAAUAUUACGCUUC | -2.24 ± 0.35 |  |
| GACGAGCAAUAUUACGGCGC | -1.79 ± 0.093 | -0.8 ± 0.11 |
| GACCAGCAAUAUUACGGGUA | -0.533 ± 0.058 | -0.146 ± 0.061 |
| UUUGAGCAAUAUUACGACUU | -3.13 ± 0.34 | -2.28 ± 0.37 |
| AUCGAGCAAUAUUACGCCGU | -2.52 ± 0.21 | -1.46 ± 0.31 |
| UCCAAGCAAUAUUACGGUCG | -2.37 ± 0.097 | -0.886 ± 0.099 |
| UGGUAGCAAUAUUACGACUG | -0.361 ± 0.25 | -0.806 ± 0.3 |
| CAUUAGCAAUAUUACGUCCU | -3.14 ± 0.18 | -1.38 ± 0.15 |
| ACGGAGCAAUAUUACGUGGC | -4.63 ± 0.42 |  |
| CCGUAGCAAUAUUACGUGUA | -3.5 ± 0.2 | -3.25 ± 0.29 |
| GCGGAGCAAUAUUACGGGUU | -4.22 ± 0.29 | -1.49 ± 0.14 |
| ACACAGCAAUAUUACGUUUA | -2.9 ± 0.11 | -1.99 ± 0.088 |
| AAGAAGCAAUAUUACGAGAA | -2.07 ± 0.26 | -1.87 ± 0.19 |
| GCCUAGCAAUAUUACGCUAC | -2.7 ± 0.21 | -2.81 ± 0.36 |
| GAGGAGCAAUAUUACGGCAA | -2.41 ± 0.21 | -0.766 ± 0.26 |
| CCGUAGCAAUAUUACGGUAU | -4.05 ± 0.21 | -2.85 ± 0.2 |

Reference: the supplement of paper PMC7877785
